Measurements from publication PMC9369236, “Unravelling the Adaptation Mechanisms to High Pressure in Proteins” (International Journal of Molecular Sciences, 2022).

What was measured:
[1] = molecular target: Phosphomannose isomerase from Thermococcus kodakarensis, expressed from pET-16b (Thermococcus kodakarensis); experiment: SEC; AKTA FPLC, XK50-60 column with 1 L Superdex 75 Prep-Grade resin, calibrated with the GE Healthcare Low Molecular Weight kit; elution at double the expected MW; self-association (dimer)
[2] = molecular target: the molecule itself; experiment: as above

Phosphomannose isomerase from Thermococcus kodakarensis, expressed from pET-16b (enzyme)
stoichiometry N [1]: 2

B1: Phosphomannose isomerase from Thermococcus barophilus, expressed from pET-16b (enzyme)
chain: MKAEIKEFIDRGTYRKAPLFEGELPEGSYAQIVEIKPKQTVPKHYHEKQYELFYIISGQAKLGIEEREYDAKPGDIFLVKPKTVHWVVNKKEEPFRLFVIKLNYFGDDSVWLE
notes: Phosphomannose isomerase (PMI) of Thermococcus barophilus, gene TERMP_00744, synthetic codon-optimized gene; Construct for neutron scattering; removal of the tag is not mentioned; also called Tba PMI; PMI
stoichiometry N [2]: 2
